Results reported in IntAct's records for PubMed 21889351.

B1: Programmed cell death 6-interacting protein (Homo sapiens), Q8WUM4 (parent)
chain: MATFISVQLKKTSEVDLAKPLVKFIQQTYPSGGEEQAQYCRAAEELSKLRRAAVGRPLDKHEGALETLLRYYDQICSIEPKFPFSENQICLTFTWKDAFDKGSLFGGSVKLALASLGYEKSCVLFNCAALASQIAAEQNLDNDEGLKIAAKHYQFASGAFLHIKETVLSALSREPTVDISPDTVGTLSLIMLAQAQEVFFLKATRDKMKDAIIAKLANQAADYFGDAFKQCQYKDTLPKEVFPVLAAKHCIMQANAEYHQSILAKQQKKFGEEIARLQHAAELIKTVASRYDEYVNVKDFSDKINRALAAAKKDNDFIYHDRVPDLKDLDPIGKATLVKSTPVNVPISQKFTDLFEKMVPVSVQQSLAAYNQRKADLVNRSIAQMREATTLANGVLASLNLPAAIEDVSGDTVPQSILTKSRSVIEQGGIQTVDQLIKELPELLQRNREILDESLRLLDEEEATDNDLRAKFKERWQRTPSNELYKPLRAEGTNFRTVLDKAVQADGQVKECYQSHRDTIVLLCKPEPELNAAIPSANPAKTMQGSEVVNVLKSLLSNLDEVKKEREGLENDLKSVNFDMTSKFLTALAQDGVINEEALSVTELDRVYGGLTTKVQESLKKQEGLLKNIQVSHQEFSKMKQSNNEANLREEVLKNLATAYDNFVELVANLKEGTKFYNELTEILVRFQNKCSDIVFARKTERDELLKDLQQSIAREPSAPSIPTPAYQSSPAGGHAPTPPTPAPRTMPPTKPQPPARPPPPVLPANRAPSATAPSPVGAGTAAPAPSQTPGSAPPPQAQGPPYPTYPGYPGYCQMPMPMGYNPYAYGQYNMPYPPVYHQSPGQAPYPGPQQPSYPFPQPPQQSYYPQQ
partner: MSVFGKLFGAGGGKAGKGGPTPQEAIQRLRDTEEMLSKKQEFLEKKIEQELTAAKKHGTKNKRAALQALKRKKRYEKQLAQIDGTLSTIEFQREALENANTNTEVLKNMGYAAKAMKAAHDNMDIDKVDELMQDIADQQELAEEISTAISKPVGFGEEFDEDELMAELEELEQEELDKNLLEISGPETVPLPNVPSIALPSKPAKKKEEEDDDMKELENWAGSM

Variants of: B1
Conditions: with chm4b_human CHMP4B

Variant | effect of a mutation on the interaction
I212D | disrupting interaction
